Assays:
human FcγRIIIA V158 = molecular target: T1, human FcγRIIIA V158 (human, UniProt P08637 17-254); experiment: competition flow cytometry on CHO DG-44 cells expressing human FcγRIIIA V158; competitor 50 nmol/L Alexa Fluor 488 labeled anti-CD70 IgG1
T1 construct: whole, on cells; also called huFcγRIIIA V158; human Fcγ receptor (CD16)

murine FcγRIV = molecular target: T2, murine FcγRIV (murine, UniProt A0A0B4J1G0 21-249); experiment: competition flow cytometry on CHO DG-44 cells expressing murine FcγRIV; competitor 200 nmol/L Alexa Fluor 488 labeled anti-CD70 IgG1
T2 construct: also called muFcγRIV; murine Fcγ receptor (CD16)
T2 sequence: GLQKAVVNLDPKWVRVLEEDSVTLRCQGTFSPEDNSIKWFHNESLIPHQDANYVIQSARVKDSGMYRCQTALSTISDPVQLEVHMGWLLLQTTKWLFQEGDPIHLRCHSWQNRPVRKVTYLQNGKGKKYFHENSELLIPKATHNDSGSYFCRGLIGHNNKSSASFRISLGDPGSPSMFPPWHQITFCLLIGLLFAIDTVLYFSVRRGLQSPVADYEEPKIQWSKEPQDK

T1 sequence (P08637 17-254 F176V): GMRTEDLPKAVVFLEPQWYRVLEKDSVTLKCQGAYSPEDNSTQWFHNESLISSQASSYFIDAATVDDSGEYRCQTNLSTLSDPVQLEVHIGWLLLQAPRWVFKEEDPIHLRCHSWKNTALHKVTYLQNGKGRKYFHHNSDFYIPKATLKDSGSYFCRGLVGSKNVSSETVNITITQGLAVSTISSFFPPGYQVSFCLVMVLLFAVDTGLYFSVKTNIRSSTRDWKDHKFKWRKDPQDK

EC50 (human FcγRIIIA V158): 113 nM | EC50 (murine FcγRIV): 369 nM
B1: control h1F6 antibody (humanized IgG1 anti-CD70 monoclonal antibody, from CHO DG44 cells cultured without fucose analog; core fucosylated) (antibody)
chain 1: QVQLVQSGAEVKKPGASVKVSCKASGYTFTNYGMNWVRQAPGQGLKWMGWINTYTGEPTYADAFKGRVTMTRDTSISTAYMELSRLRSDDTAVYYCARDYGDYGMDYWGQGTTVTVSSASTKGPSVFPLAPCSRSTSESTAALGCLVKDYFPEPVTVSWNSGALTSGVHTFPAVLQSSGLYSLSSVVTVPSSNFGTQTYTCNVDHKPSNTKVDKTVERKCCVECPPCPAPPVAGPSVFLFPPKPKDTLMISRTPEVTCVVVDVSHEDPEVQFNWYVDGVEVHNAKTKPREEQFNSTFRVVSVLTVVHQDWLNGKEYKCKVSNKGLPAPIEKTISKTKGQPREPQVYTLPPSREEMTKNQVSLTCLVKGFYPSDIAVEWESNGQPENNYKTTPPMLDSDGSFFLYSKLTVDKSRWQQGNVFSCSVMHEALHNHYTQKSLSLSPGK
chain 2: DIVMTQSPDSLAVSLGERATINCRASKSVSTSGYSFMHWYQQKPGQPPKLLIYLASNLESGVPDRFSGSGSGTDFTLTISSLQAEDVAVYYCQHSREVPWTFGQGTKVEIKRTVAAPSVFIFPPSDEQLKSGTASVVCLLNNFYPREAKVQWKVDNALQSGNSQESVTEQDSKDSTYSLSSTLTLSKADYEKHKVYACEVTHQGLSSPVTKSFNRGEC

Source: patent US20190276796A1 (Seagen, published 2019)
